Measurements as given in patent publication US20240239876A1 (GRIFOLS DIAGNOSTIC SOLUTIONS, published 2024).

B1: anti-HIV-1 antibody #B (antibody, V domains shown)
VH: EVQLVESGGGLVKPGGSLKLSCAASGFAFSSYDMSWVRQTPDKRLEWVAYITSGVGNLNYLDTVKGRFTISRDNAKNTLYLQMSSLRSEDTAMYFCLRPPSYFGSSYDAMDYWGRGTSVTVSS
VL: DIVLTQSPATLSVTPGDSVSLSCRASQSISDNLHWYRQKSHESPRLLIKYSSQSISGIPSRFSGSGSGTDFTLSINSVETEDFGMYFCQQSNSWPFTFGSGTNLELKR
notes: recombinant, expressed in CHO cells; also called mAb B
B2: anti-HIV-1 antibody #D (antibody, V domains shown)
VH: QIQLQQSGPELVKPGASVKVSCKASGYAFTSYQLYWVKQSHGKSLEWIGYIDPYNGGTGYNQKFKGKATLTVDKSSSTAYMHLNSLTSEDSAVYYCASPRWLPAGDYWGQGTSVTVSS
VL: DVVMTQTPLSLPVSLGDQASISCRSSQSLVNSDGNTFLQWLLQKPGQSPKLLIYKVSNRFSGVPDRFSGSGSGTDFTLRISRVEAEDLGVYFCSQSTHVPWTFGGGTKLEIKR
notes: recombinant, expressed in CHO cells; also called mAb D; monoclonal antibody D
B3: anti-HIV-1 antibody #A (antibody, V domains shown)
VH: EVKLVESGGGLVKPGGSLQLSCVASGFTFSSYAMSWVRQTPEKGLEWVASITSGGNTYYPDSVKGRFTISRDNAGNILYLQMSSLRSEDTAMFYCAREVLSVPFAYWGQGTLVTVST
VL: DIQMTQTTSSLSASLGDRVTINCRASQDISNYLHWYQQKPDGTVKLLIYYTSRLHSGVPSRFSGSGSGTDYSLTISNLEKEDIATYFCQQGNSFPWTFGGGTKVEIKR
notes: recombinant, expressed in CHO cells; also called mAb A

Biological target: T1, HIV-1 p24 protein (HIV-1, UniProt P03349 135-365)
T1 construct: also called HIV-1 p24 antigen; HIV-p24
Assay: BLI, antibody captured on anti-mouse Fc biosensors, 1:1 model

**Q.** What does the source list for B1?
**A.** Kd: < 0.00024 nM; koff: < 1e-07 s⁻¹; kon: 408000 M⁻¹ s⁻¹

**Q.** Which results are given for B2?
**A.** Kd: < 0.00052 nM; koff: < 1e-07 s⁻¹; kon: 194000 M⁻¹ s⁻¹

**Q.** What does the source list for B3?
**A.** Kd: 0.2 nM; koff: 5.9e-05 s⁻¹; kon: 241000 M⁻¹ s⁻¹

Biological target: T1, HIV-1 p24 protein
Assay: indirect ELISA on HIV-1 p24, OD 405 nm, antibody titrated 1:10 from 2 µg/mL (no unit beside the EC50; taken from the x axis, p24 Antibody [ng/mL])

**Q.** Which EC50 does the source give for B1 here?
**A.** 76.7 ng/mL

**Q.** B2 was tested. Which EC50 did it give?
**A.** 8.41 ng/mL

**Q.** How did the EC50 turn out when B3 was run?
**A.** 3.6 ng/mL
